“And” between values parts separate entries of the source, which are not always exact repeats. Equal entries are not always repeated. Values belong to the binder of their own block, whether it stands above or below them.
Columns and labels:
[1] = molecular target: human FGF R3 (IIIc) Fc chimera (R&D systems, 766-FR) (human) (UniProt P22607); experiment: indirect ELISA, hu8C4 at 0.002 nM
[2] = molecular target: human FGF R3 (IIIc) Fc chimera (R&D systems, 766-FR) (human) (UniProt P22607); experiment: indirect ELISA, hu8C4 at 0.010 nM
[3] = molecular target: human FGF R3 (IIIc) Fc chimera (R&D systems, 766-FR) (human) (UniProt P22607); experiment: indirect ELISA, hu8C4 at 0.048 nM
[4] = molecular target: human FGF R3 (IIIc) Fc chimera (R&D systems, 766-FR) (human) (UniProt P22607); experiment: indirect ELISA, hu8C4 at 30.000 nM
[5] = molecular target: c-Met receptor on human tumor cells (MKN45, NCI-H820, HCC827) (human) (UniProt P08581); experiment: flow cytometry on MKN45 cells, (MFI 37° C. - IgG)/(MFI 4° C. - IgG) x 100
Sequence of c-Met receptor on human tumor cells (MKN45, NCI-H820, HCC827) (human) (P08581 25-1390): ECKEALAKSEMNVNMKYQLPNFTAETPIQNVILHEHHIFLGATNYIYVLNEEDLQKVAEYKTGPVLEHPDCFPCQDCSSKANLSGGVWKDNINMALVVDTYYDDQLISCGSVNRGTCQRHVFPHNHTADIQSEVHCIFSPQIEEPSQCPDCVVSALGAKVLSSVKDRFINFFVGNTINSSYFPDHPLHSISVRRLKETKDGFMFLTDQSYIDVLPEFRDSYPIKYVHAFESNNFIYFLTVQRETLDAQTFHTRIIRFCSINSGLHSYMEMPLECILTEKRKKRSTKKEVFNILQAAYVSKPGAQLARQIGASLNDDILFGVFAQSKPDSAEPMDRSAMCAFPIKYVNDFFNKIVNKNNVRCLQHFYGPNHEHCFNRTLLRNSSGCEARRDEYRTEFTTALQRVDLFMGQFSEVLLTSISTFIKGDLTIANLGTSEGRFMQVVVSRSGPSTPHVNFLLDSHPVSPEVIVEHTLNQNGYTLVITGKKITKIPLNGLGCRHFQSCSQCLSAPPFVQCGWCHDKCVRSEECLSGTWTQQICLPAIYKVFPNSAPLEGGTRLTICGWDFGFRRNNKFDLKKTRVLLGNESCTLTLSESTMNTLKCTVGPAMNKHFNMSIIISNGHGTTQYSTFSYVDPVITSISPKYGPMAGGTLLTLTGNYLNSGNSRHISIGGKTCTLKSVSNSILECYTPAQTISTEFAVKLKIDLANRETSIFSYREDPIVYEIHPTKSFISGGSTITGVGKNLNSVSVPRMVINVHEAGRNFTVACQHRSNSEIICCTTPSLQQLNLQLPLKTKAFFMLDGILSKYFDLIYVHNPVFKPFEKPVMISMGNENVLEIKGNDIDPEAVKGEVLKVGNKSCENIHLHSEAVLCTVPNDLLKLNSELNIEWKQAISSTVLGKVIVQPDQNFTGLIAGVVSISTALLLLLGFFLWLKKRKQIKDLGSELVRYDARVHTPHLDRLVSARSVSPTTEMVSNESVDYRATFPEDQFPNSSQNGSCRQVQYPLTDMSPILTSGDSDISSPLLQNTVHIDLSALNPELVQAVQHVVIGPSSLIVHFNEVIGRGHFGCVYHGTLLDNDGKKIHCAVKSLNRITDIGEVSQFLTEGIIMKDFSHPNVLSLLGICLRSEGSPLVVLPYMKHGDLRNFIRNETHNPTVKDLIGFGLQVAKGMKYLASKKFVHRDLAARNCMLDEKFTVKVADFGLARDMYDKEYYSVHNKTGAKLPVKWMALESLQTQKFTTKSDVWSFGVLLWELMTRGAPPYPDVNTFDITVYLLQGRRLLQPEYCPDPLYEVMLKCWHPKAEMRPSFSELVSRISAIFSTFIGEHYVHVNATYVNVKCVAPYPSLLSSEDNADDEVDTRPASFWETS

[6] = molecular target: c-Met receptor on human tumor cells (MKN45, NCI-H820, HCC827) (human) (UniProt P08581); experiment: flow cytometry on MKN45 cells, 100 nM antibody, 4° C. 1 hour (not internalized), anti-human kappa LC-FITC
[7] = molecular target: c-Met receptor on human tumor cells (MKN45, NCI-H820, HCC827) (human) (UniProt P08581); experiment: flow cytometry on MKN45 cells, 100 nM antibody overnight at 37° C., antibody left on the surface, anti-human kappa LC-FITC

A450 nm-A570 nm (A450 nm-A570 nm) [1]: 0
A450 nm-A570 nm (A450 nm-A570 nm) [2]: 0
A450 nm-A570 nm (A450 nm-A570 nm) [3]: 0
A450 nm-A570 nm (A450 nm-A570 nm) [4]: 0.01 and 0.02
B1: hu8C4 (IgG1 humanized antibody having a hinge region of SEQ ID NO: 38 in hu8C4-1) (antibody, V domains shown)
VH: EVQLVESGGGLVQPGGSLRLSCAASGYTFSDYYINWVRQAPGKGLEWIGEIFPGSGNTHFSARFKGRATLSADKSKNTAYLQMNSLRAEDTAVYYCAGGDYGFLYWGQGTLVTVSS
VL: DIQMTQSPSSLSASVGDRVTITCGASENIYGALNWYQQKPGKAPKLLIYGATNLADGVPSRFSGSGSGRDFTFTISSLQPEDIATYYCQNVLSSPYTFGQGTKVEIK

Surface bound Ab(%) [5]: 98%
FITC MFI [4° C. control] (FITC geo-mean (MFI)) [6]: 1760
FITC MFI [37° C. exp.] (FITC geo-mean (MFI)) [7]: 1720
B2: OA-5D5 (Genentech) (antibody, INN chains, looked up, V domains shown)
VH: EVQLVESGGGLVQPGGSLRLSCAASGYTFTSYWLHWVRQAPGKGLEWVGMIDPSNSDTRFNPNFKDRFTISADTSKNTAYLQMNSLRAEDTAVYYCATYRSYVTPLDYWGQGTLVTVSS
VL: DIQMTQSPSSLSASVGDRVTITCKSSQSLLYTSSQKNYLAWYQQKPGKAPKLLIYWASTRESGVPSRFSGSGSGTDFTLTISSLQPEDFATYYCQQYYAYPWTFGQGTKVEIK
modifications: one-armed

Source: US20200231681A1
